Results as given in article PMC2475716 (The Journal of Biological Chemistry, 2008).

B1: IPT Δ1 (domain or fragment, UniProt P08581 657-932, looked up)
chain: PVITSISPKYGPMAGGTLLTLTGNYLNSGNSRHISIGGKTCTLKSVSNSILECYTPAQTISTEFAVKLKIDLANRETSIFSYREDPIVYEIHPTKSFISGGSTITGVGKNLNSVSVPRMVINVHEAGRNFTVACQHRSNSEIICCTTPSLQQLNLQLPLKTKAFFMLDGILSKYFDLIYVHNPVFKPFEKPVMISMGNENVLEIKGNDIDPEAVKGEVLKVGNKSCENIHLHSEAVLCTVPNDLLKLNSELNIEWKQAISSTVLGKVIVQPDQNFT
B2: HGF NK1 (domain or fragment, UniProt P14210-1 32-205, looked up)
chain: QRKRRNTIHEFKKSAKTTLIKIDPALKIKTKKVNTADQCANRCTRNKGLPFTCKAFVFDKARKQCLWFPFNSMSSGVKKEFGHEFDLYENKDYIRNCIIGKGRSYKGTVSITKSGIKCQPWSSMIPHEHSFLPSSYRGKDLQENYCRNPRGEEGGPWCFTSNPEVRYEVCDIPQ
B3: HGF-α (domain or fragment, UniProt P14210 32-473, looked up)
chain: QRKRRNTIHEFKKSAKTTLIKIDPALKIKTKKVNTADQCANRCTRNKGLPFTCKAFVFDKARKQCLWFPFNSMSSGVKKEFGHEFDLYENKDYIRNCIIGKGRSYKGTVSITKSGIKCQPWSSMIPHEHSFLPSSYRGKDLQENYCRNPRGEEGGPWCFTSNPEVRYEVCDIPQCSEVECMTCNGESYRGLMDHTESGKICQRWDHQTPHRHKFLPERYPDKGFDDNYCRNPDGQPRPWCYTLDPHTRWEYCAIKTCADNTMNDTDVPLETTECIQGQGEGYRGTVNTIWNGIPCQRWDSQYPHEHDMTPENFKCKDLRENYCRNPDGSESPWCFTTDPNIRVGYCSQIPNCDMSHGQDCYRGNGKNYMGNLSQTRSGLTCSMWDKNMEDLHRHIFWEPDASKLNENYCRNPDDDAHGPWCYTGNPLIPWDYCPISRCEGDT
B4: PSI-IPT (domain or fragment, UniProt P08581 516-932, looked up)
chain: NGLGCRHFQSCSQCLSAPPFVQCGWCHDKCVRSEECLSGTWTQQICLPAIYKVFPNSAPLEGGTRLTICGWDFGFRRNNKFDLKKTRVLLGNESCTLTLSESTMNTLKCTVGPAMNKHFNMSIIISNGHGTTQYSTFSYVDPVITSISPKYGPMAGGTLLTLTGNYLNSGNSRHISIGGKTCTLKSVSNSILECYTPAQTISTEFAVKLKIDLANRETSIFSYREDPIVYEIHPTKSFISGGSTITGVGKNLNSVSVPRMVINVHEAGRNFTVACQHRSNSEIICCTTPSLQQLNLQLPLKTKAFFMLDGILSKYFDLIYVHNPVFKPFEKPVMISMGNENVLEIKGNDIDPEAVKGEVLKVGNKSCENIHLHSEAVLCTVPNDLLKLNSELNIEWKQAISSTVLGKVIVQPDQNFT

Tests used:
Assay in all cases: ELISA
HGF-α = biological target: B3
IPT = IPT (UniProt P08581 563-932)
Decoy Met = Decoy Met (UniProt P08581 25-932)
active HGF = active HGF (UniProt P14210 32-494; P14210 495-728)
Chain of active HGF (P14210 495-728, one chain of several): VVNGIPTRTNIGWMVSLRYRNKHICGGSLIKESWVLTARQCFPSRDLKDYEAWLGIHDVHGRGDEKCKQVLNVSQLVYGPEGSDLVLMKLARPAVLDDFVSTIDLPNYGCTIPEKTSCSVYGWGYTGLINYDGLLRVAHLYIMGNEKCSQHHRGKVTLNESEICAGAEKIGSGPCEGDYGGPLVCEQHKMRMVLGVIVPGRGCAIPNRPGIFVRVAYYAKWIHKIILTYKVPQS

Binder: B1
binding result (HGF-α): binds

Binder: B2
fold less tightly than active HGF (IPT): 10 times | fold reduced affinity compared with active HGF (Decoy Met): 10 fold

Binder: B3
fold reduced affinity compared with active HGF (Decoy Met): 4 fold

Binder: B4
binding result (active HGF): binds
